From patent US20090092640A1

Target: mutant murine LIGHT (a.a. 79-82, EKLI, deleted), expressed on the cell surface (murine) (UniProt Q9QYH9)
Assay: cell-based or functional assay

mutant murine LIGHT (a.a. 79-82, EKLI, deleted), expressed on the cell surface (murine), sequence (Q9QYH9 other isoform, or with tags, fused parts or gaps mutant limits assumed): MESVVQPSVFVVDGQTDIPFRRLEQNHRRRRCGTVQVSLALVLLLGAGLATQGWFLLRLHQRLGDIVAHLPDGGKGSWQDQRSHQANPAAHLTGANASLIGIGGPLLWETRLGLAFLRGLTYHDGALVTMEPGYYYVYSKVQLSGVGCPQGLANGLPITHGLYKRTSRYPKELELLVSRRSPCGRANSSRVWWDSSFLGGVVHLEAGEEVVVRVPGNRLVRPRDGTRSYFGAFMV
LTβR-human Ig (Fc fusion), sequence (P50284 31-223): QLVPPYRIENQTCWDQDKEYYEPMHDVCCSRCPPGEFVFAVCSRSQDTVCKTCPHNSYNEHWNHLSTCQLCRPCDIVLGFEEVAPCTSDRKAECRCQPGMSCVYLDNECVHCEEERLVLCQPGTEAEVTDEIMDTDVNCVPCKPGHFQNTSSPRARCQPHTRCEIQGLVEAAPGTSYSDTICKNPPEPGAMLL

In the case of LTβR-human Ig (Fc fusion), the Incidence of tumor growth (Percentage), 10^6 Ag104L^d-LIGHT^m in C3B6F1 mice treated with LTβR-Ig is reported as 100 % (6/6 mice).
